Reference: US20150246959A1 (published 2015)
Each block holds one binder with its values, some of them ahead of it.

Assays:
[1] = target: T1, MAGE-A12 peptide on HLA-DPB1*04:01 (human); test: cytokine release
T1 peptide: KKLLTQDLVQENYLEY

[2] = target: T2, MAGE-A3 peptide on HLA-DPB1*04:01 (human); test: cytokine release
T2 peptide: KKLLTQHFVQENYLEY

[3] = target: T3, MAGE-A1 peptide on HLA-DPB1*04:01 (human); test: cytokine release
T3 peptide: KKLLTQDLVQEKYLEY

[4] = target: T4, MAGE-A3 peptide on HLA-DPB1*04:02 (human); test: cytokine release
T4 peptide: QHFVQENYLEY

[5] = target: T5, MAGE-A2/A12 peptide on HLA-DPB1*04:01 (human); test: cytokine release
T5 peptide: QDLVQENYLEY

[6] = target: T6, MAGE-A3 peptide on HLA-DPB1*04:01 (human); test: cytokine release
T6 peptide: LTQHFVQENYLEY

[7] = target: T7, MAGE-A8 peptide on HLA-DPB1*04:01 (human); test: cytokine release
T7 peptide: QEWVQENYLEY

[8] = target: T8, MAGE-B2 peptide on HLA-DPB1*04:01 (human); test: cytokine release
T8 peptide: KDLVQEKYLEY

[9] = target: T9, MAGE-C1 peptide on HLA-DPB1*04:01 (human); test: cytokine release
T9 peptide: KVWVQEHYLEY

[10] = target: T10, MAGE-A4/A9 peptide on HLA-DPB1*04:01 (human); test: cytokine release
T10 peptide: QDWVQENYLEY

[11] = target: T11, MAGE-A3 peptide on HLA-DPB1*04:01 (human); test: cytokine release
T11 peptide: QHFVQENYLEY

[12] = target: T12, MAGE-G1 peptide on HLA-DPB1*04:01 (human); test: cytokine release
T12 peptide: KKLITEDFVRQRYLEY

[13] = target: T13, MAGE-A3 peptide on HLA-DPB1*04:01 (human); test: cytokine release
T13 peptide: TQHFVQENYLEY

[14] = target: T14, MAGE-A3 peptide on HLA-DPB1*04:01 (human); test: cytokine release
T14 peptide: KKLLTQHFVQEN

[15] = target: T15, MAGE-A3 peptide on HLA-DPB1*04:01 (human); test: cytokine release
T15 peptide: LLTQHFVQENYLEY

[16] = target: T16, MAGE-A3 peptide on HLA-DPB1*04:01 (human); test: cytokine release
T16 peptide: KKLLTQHFVQE

[17] = target: T17, MAGE-B10 peptide on HLA-DPB1*04:01 (human); test: cytokine release
T17 peptide: KDLVKENYLEY

[18] = target: T18, MAGE-A6 peptide on HLA-DPB1*04:01 (human); test: cytokine release
T18 peptide: QYFVQENYLEY

[19] = target: T19, Necdin peptide on HLA-DPB1*04:01 (human); test: cytokine release
T19 peptide: EEFVQMNYLKY

[20] = target: T20, MAGE-B16 peptide on HLA-DPB1*04:01 (human); test: cytokine release
T20 peptide: KDFVKEKYLEY

[21] = target: T21, MAGE-L2 peptide on HLA-DPB1*04:01 (human); test: cytokine release
T21 peptide: KKLITEVFVRQKYLEY

[22] = target: T2, MAGE-A3 peptide on HLA-DPB1*04:01; test: multimer staining

binding result [1]: no recognition
binding result [2]: recognises
binding result [3]: no recognition
B1: R12C9 TCR (TCR, V domains shown)
Valpha: AQTVTQSQPEMSVQEAETVTLSCTYDTSESDYYLFWYKQPPSRQMILVIRQEAYKQQNATENRFSVNFQKAAKSFSLKISDSQLGDAAMYFCAYTVPSNAGGTSYGKLTFGQGTILTVHP
Vbeta: EPEVTQTPSHQVTQMGQEVILRCVPISNHLYFYWYRQILGQKVEFLVSFYNNEISEKSEIFDDQFSVERPDGSNFTLKIRSTKLEDSAMYFCASSERGQGYGYTFGSGTRLTVV

binding result [1]: no recognition
binding result [4]: recognises
binding result [5]: no recognition
binding result [6]: recognises
binding result [7]: no recognition
binding result [8]: no recognition
binding result [9]: no recognition
binding result [10]: no recognition
binding result [11]: recognises
binding result [12]: no recognition
binding result [13]: recognises
binding result [14]: no recognition
binding result [15]: recognises
binding result [16]: no recognition
binding result [17]: no recognition
binding result [18]: recognises
binding result [19]: no recognition
binding result [20]: no recognition
binding result [3]: no recognition
binding result [21]: no recognition
binding result [22]: recognises
B2: 6F9 TCR (TCR, V domains shown)
Valpha: AQTVTQSQPEMSVQEAETVTLSCTYDTSESDYYLFWYKQPPSRQMILVIRQEAYKQQNATENRFSVNFQKAAKSFSLKISDSQLGDAAMYFCALRSSGTYKYIFGTGTRLKVLA
Vbeta: GAGVSQSPSNKVTEKGKDVELRCDPISGHTALYWYRQSLGQGLEFLIYFQGNSAPDKSGLPSDRFSAERTGGSVSTLTIQRTQQEDSAVYLCASIRTGPFFSGNTIYFGEGSWLTVV
